The test has as its target T1, His-tag IpaB (Shigella flexneri 2457T IpaB with N-terminal His-tag, expressed from pET15b) (Shigella flexneri 2457T, UniProt P18011 1-580).
T1 construct: not shown: N-terminal His-tag from vector pET15b
T1 sequence: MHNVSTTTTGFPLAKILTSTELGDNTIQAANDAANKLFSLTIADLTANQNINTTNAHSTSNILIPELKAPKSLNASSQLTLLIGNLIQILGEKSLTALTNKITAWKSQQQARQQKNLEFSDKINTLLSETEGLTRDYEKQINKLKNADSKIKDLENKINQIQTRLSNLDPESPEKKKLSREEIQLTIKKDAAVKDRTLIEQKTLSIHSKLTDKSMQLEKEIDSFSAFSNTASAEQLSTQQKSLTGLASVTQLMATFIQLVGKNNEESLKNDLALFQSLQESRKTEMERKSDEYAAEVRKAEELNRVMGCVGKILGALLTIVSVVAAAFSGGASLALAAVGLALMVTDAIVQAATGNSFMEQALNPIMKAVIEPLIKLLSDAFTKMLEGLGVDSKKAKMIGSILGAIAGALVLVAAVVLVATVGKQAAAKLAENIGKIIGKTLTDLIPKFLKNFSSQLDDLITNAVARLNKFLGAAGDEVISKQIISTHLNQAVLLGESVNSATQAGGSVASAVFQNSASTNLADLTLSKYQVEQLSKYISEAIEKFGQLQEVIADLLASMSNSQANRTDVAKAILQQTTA
Kind of test: co-expression and co-purification.

B1: IpgC (cognate chaperone of IpaB, untagged, expressed from pACYCDuet-1) (other)
chain: MSLNITENESISTAVIDAINSGATLKDINAIPDDMMDDIYSYAYDFYNKGRIEEAEVFFRFLCIYDFYNVDYIMGLAAIYQIKEQFQQAADLYAVAFALGKNDYTPVFHTGQCQLRLKAPLKAKECFELVIQHSNDEKLKIKAQSYLDAIQDIKE
Consider B1, for which the binding result was “binds”.

These data come from patent US20130149329A1 (BOARD OF REGENTS FOR OKLAHOMA STATE UNIVERSITY, published 2013).
